From patent publication US20250195629A1, “SITE-SPECIFIC BRAIN THERAPEUTICS” (William Marsh Rice University, priority 2023, published 2025)
Where two headings read alike, the source gives them in different places.

B1: AADC-IKVAV: aromatic-L-amino-acid decarboxylase (AADC) protein fused with short peptide IKVAV (SEQ ID NO: 23); CDS SEQ ID NO: 21 (protein)
chain: MRGSHHHHHHGMASMTGGQQMGRDLYDDDDKDPMNASEFRRRGKEMVDYMANYMEGIEGRQVYPDVEPGYLRPLIPAAAPQEPDTFEDIINDVEKIIMPGVTHWHSPYFFAYFPTASSYPAMLADMLCGAIGCIGFSWAASPACTELETVMMDWLGKMLELPKAFLNEKAGEGGGVIQGSASEATLVALLAARTKVIHRLQAASPELTQAAIMEKLVAYSSDQAHSSVERAGLIGGVKLKAIPSDGNFAMRASALQEALERDKAAGLIPFFMVATLGTTTCCSFDNLLEVGPICNKEDIWLHVDAAYAGSAFICPEFRHLLNGVEFADSFNFNPHKWLLVNFDCSAMWVKKRTDLTGAFRLDPTYLKHSHQDSGLITDYRHWQIPLGRRFRSLKMWFVFRMYGVKGLQAYIRKHVQLSHEFESLVRQDPRFEICVEVILGLVCFRLKGSNKVNEALLQRINSAKKIHLVPCHLRDKFVLRFAICSRTVESAHVQRAWEHIKELAADVLRAEREGGSGSSGGSGGSGGSGIKVAV
modifications: misc_feature 1..1602 Synthetic: AADC-IKVAV

How the values were obtained:
[1] = system: dopamine receptor D1+ or D2+ expressing cells in the CPu; format: in vivo, mouse
Procedure: c-Fos activation with engineered AADC—Three groups of mice underwent FUS-BBBO procedure to target a single site at left striatum immediately after intravenous injection of recombinant protein AADC-IKVAV (SEQ ID NO: 23) (20 mg/mL, 250 mg/kg) or equivalent volume of PBS buffer (n=5 mice for FUS alone+L-DOPA group). After 48 h, the mice were given a single dose of L-DOPA (0.1 mg/mL, 2 mg/kg, i.p.; Spectrum Chemical) 10 min after injection of carbidopa (1 mg/mL, 25 mg/kg, i.p.; Sigma-Aldrich), both of which were dissolved in sterile saline containing 2.5 and 0.125 mg/mL ascorbic acid. […] After 2 hours, the mice were euthanized by transcardial perfusion, and their brains were extracted and sliced into 50 μm coronal sections following 24-48 hours of fixation.
The section displaying the strongest AADC fluorescence was selected as the representative for each mouse, and its adjacent section was stained separately to identify c-Fos and dopamine receptor D1 and D2 positive cells. The procedure was carried out as follows: (1) block sections in 10% normal goat serum (SouthernBiotech) and 0.3% Triton-X solution in PBS for 1 h at room temperature; (2) incubate with primary rabbit anti-c-Fos (1:2000, 2250S, Cell Signaling Technology) antibody in PBS with 0.3% Triton-X for 2 h at room temperature; (3) after washing three times in PBS (15 min each, the same as below), incubate with primary rat anti-D1 Dopamine Receptor (1:500, D2944, MilliporeSigma) and Guinea pig anti-Dopamine Receptor D2 (1:500, Cat. #376 205, Synaptic Systems) antibodies in 5% normal goat serum and 0.3% Triton-X solution in PBS overnight at 4° C.; (4) after washing three times, incubate with secondary goat anti-rabbit antibody conjugated to Alexa Fluor 647 (1:500, A-21245, ThermoFisher) in PBS with 0.3% Triton-X for 2 h at room temperature; (5) after washing three times, incubate with secondary goat anti-rat antibody conjugated to Alexa Fluor 546 (1:500, A-11081, ThermoFisher) and goat anti-Guinea Pig antibody conjugated to Alexa Fluor 488 (1:500, A-11073, ThermoFisher) in 5% normal goat serum and 0.3% Triton-X solution in PBS for 2 h at room temperature; (6) after washing three times, mount sections onto glass slides using the mounting media (Vector Laboratories) with DAPI and air-dry overnight in dark before imaging.
Within the left striatum region, a specific 5×9 binned rectangle area was selected corresponding to the highest observed AADC fluorescence in the adjacent AADC-stained section. Subsequently, images were captured of these areas using a 40× objective. The corresponding contralateral areas in the right striatum were also imaged.
(§1) In FIG. 7, we applied the following brightness (white) thresholds for the corresponding channels: 6045 (DAPI, nuclei, not shown), 15,000 (Cy3, D1R), 16,000 (green, D2R), and 6045 (far-red, c-Fos), with a gamma value of 1. In FIG. 11, we applied a Brightness (White) threshold of 6045 for both DAPI (nuclei, not shown) and far-red (c-Fos) channels, with a Gamma value of 1. The images were then overlayed, and the c-Fos+ cells were manually counted. Similarly, the GFAP+ cells were manually counted, as shown in FIG. 15c and FIG. 17, by applying a Brightness (White) threshold of 5686 and a Gamma value of 1 for both the DAPI (nuclei) and far-red (GFAP, purple) channels.
To manually count the c-Fos-positive cells in FIG. 7, three scorers (Z. H., S. N., and R. J.) independently assessed all c-Fos staining sites. R. J. served as the blinded scorer, and the averaged counts from all three scorers were rounded for the final statistical analysis.

c-Fos+ cells in the CPu = test: c-Fos+ cell count at the CPu after behavior test; format: in vivo, mouse
Text: To quantify the c-Fos-positive cells related to FIG. 11, the stained coronal sections were initially imaged using a 4× objective in DAPI (nuclei, not shown) and far-red (c-Fos, shown in purple) channels. Within the left striatum region, one or more specific 3×3 binned square areas were selected corresponding to the highest observed AADC fluorescence in the adjacent AADC-stained section. Subsequently, images of these areas were captured using a 40× objective. Corresponding contralateral areas in the right striatum were also captured.
as §1
To address potential bias and validate our counting approach, all c-Fos staining sites from mice in FIG. 11 were independently counted by 4 scorers (A. M., Z. H., C. H. and R. J.). C. […]

| Molecule | c-Fos+ cells expressing D1+ or D2+, FUS-targeted region vs contralateral site ([1]; FUS alone + L-DOPA 2 mg/kg i.p., no enzyme) | c-Fos+ cells with no expression of D1+ or D2+ in vicinity of CPu, FUS-targeted vs contralateral ([1]; FUS-BBBO only without AADC-IKVAV (FUS alone+L-DOPA)) | change in ipsilateral c-Fos-positive cells vs contralateral site (c-Fos+ cells in the CPu; untreated mice or FUS alone, L-DOPA 2 mg/kg i.p.) | c-Fos+ cells expressing D1+ or D2+, FUS-targeted region vs contralateral site ([1]; FUS+AADC-IKVAV 250 mg/kg i.v., L-DOPA 2 mg/kg i.p. after 48 h, perfused 2 h later) | c-Fos+ cells with no expression of D1+ or D2+ in vicinity of CPu, FUS-targeted vs contralateral ([1]; FUS+AADC-IKVAV alone) | c-Fos+ cells expressing D1+ or D2+, FUS-targeted region vs contralateral site ([1]; FUS+AADC-IKVAV without L-DOPA) | c-Fos+ cells with no expression of D1+ or D2+ in vicinity of CPu, FUS-targeted vs contralateral ([1]; FUS+AADC-IKVAV+L-DOPA) | increase in ipsilateral c-Fos-positive cells vs contralateral site (c-Fos+ cells in the CPu; RAID-treated mice, FUS+AADC-IKVAV+L-DOPA, counted by A. M. and Z. H.) |
| --- | --- | --- | --- | --- | --- | --- | --- | --- |
| N[C@@H](Cc1ccc(O)c(O)c1)C(=O)O [L-DOPA, reference compound] | No significant change | no significant changes | no significant changes | – | – | – | – | – |
| B1 | – | – | – | 6.6 (±1.7) fold | no statistically significant changes | No significant change | no statistically significant changes | 5.7(±1.8) fold |
